In assay [1] the target is MN-PND peptide … (HIV-1 MN strain). Put plainly: MN-PND ELISA, serum 1:2500, day 0.
The target is the same in assay [2]. Put plainly: MN-PND ELISA, serum 1:20, day 0.
For assay [3] the target is unchanged. The assay can be described thus: MN-PND ELISA, serum 1:100, day 0.
The target is the same in assay [4]. The assay can be described thus: MN-PND ELISA, serum 1:1000, day 0. A general note: An ELISA detects its analyte on a solid surface through an enzyme-linked reagent.
Assay [5] shares this target. The assay can be described thus: MN-PND ELISA, serum 1:500, day 0.

Regarding “guinea pig serum sample 0 (day 0, Example V) (antibody)”, the O.D. in assay [1] came to 0.04 O.D; in assay [2], 0.15 O.D; in assay [3], 0.07 O.D; in assay [4] it was 0.05 O.D; in assay [5], 0.05 O.D.

Source of the values: US20030194411A1.
